Measurements from US20230355708A1 (DREXEL UNIVERSITY, published 2023).

Biological target: SARS-CoV-2 spike S2 subunit (SARS-CoV-2, UniProt P0DTC2 686-1213)
Experiment: SPR, S2 anchored on low dextran chip, CVN injected at increasing concentrations

B1: Cyanovirin-N (CV-N) (other)
chain: LGKFSQTCYNSAIQGSVLTSTCERTNGGYNTSSIDLNSVIENVDGSLKWQPSNFIETCRNTQLAGSSELAAECKTRAQQFVSTKINLDDHIANIDGTLKYE
Question: Does B1 bind?
Answer: Result: binds
